Test results published in patent US5792742.
One block for each substance: values may come before it.

Experiments:
[1] = target: fibrin (fibrinogen dried on microtiter wells and converted with thrombin); assay: competitive ELISA on fibrin-coated plates, competitor Fn (2.3 nM)
[2] = target: fibrin (fibrinogen dried on microtiter wells and converted with thrombin); assay: competitive ELISA on fibrin-coated wells, competitor biotinylated Fn (2.3 nM), 10 µM of the module pair
[3] = target: fibrin (fibrinogen dried on microtiter wells and converted with thrombin); assay: competitive ELISA on fibrin-coated wells, competitor fibronectin (FIG. 29)
[4] = target: fibrin (fibrinogen dried on microtiter wells and converted with thrombin); assay: competitive ELISA on fibrin-coated wells, Cheng and Prussoff equation from the IC50
[5] = target: fibrin (fibrinogen dried on microtiter wells and converted with thrombin); assay: competitive ELISA against intact Fn on fibrin
[6] = target: fibrin (fibrinogen dried on microtiter wells and converted with thrombin); assay: competitive ELISA on fibrin-coated wells, competitor biotinylated Fn (FIG. 29)
[7] = target: fibrin (fibrinogen dried on microtiter wells and converted with thrombin); assay: competitive ELISA on fibrin-coated wells, competitor biotinylated Fn (2.3 nM)
[8] = target: fibrin (fibrinogen dried on microtiter wells and converted with thrombin); assay: direct ELISA on fibrin-coated plates (FIG. 27A)
[9] = target: fibrin (fibrinogen dried on microtiter wells and converted with thrombin); assay: competitive ELISA on fibrin-coated plates, competitor Fn (2.3 nM), 50,000 molar excess
[10] = target: fibrin-SEPHAROSE (bovine fibrinogen cross-linked to CNBr-activated SEPHAROSE and converted to fibrin with human thrombin) (bovine) (UniProt P02672); assay: fibrin-SEPHAROSE chromatography of 35S-labeled COS supernatant, densitometry of the autoradiogram
[11] = target: fibrin (fibrinogen dried on microtiter wells and converted with thrombin); assay: direct ELISA on fibrin-coated wells (FIGS. 27A and 28A)
[12] = target: fibrin (fibrinogen dried on microtiter wells and converted with thrombin); assay: direct binding of 125I-11 kDa to fibrin-coated wells (15 ng fibrin)
[13] = target: fibrin (fibrinogen dried on microtiter wells and converted with thrombin); assay: direct binding of 125I-11 kDa to fibrin-coated removable wells, non-linear regression, one binding site model
[14] = target: fibrin (fibrinogen dried on microtiter wells and converted with thrombin); assay: competitive ELISA on fibrin-coated wells, reference intact Fn
[15] = target: fibrin (fibrinogen dried on microtiter wells and converted with thrombin); assay: competitive ELISA on fibrin-coated wells, competitor biotinylated Fn (2.3 nM), 10 µM of the fragment
[16] = target: fibrin (fibrinogen dried on microtiter wells and converted with thrombin); assay: displacement of bound 125I-11 kDa from fibrin-coated wells by 2,000 nM unlabeled 11 kDa
[17] = target: fibrin (fibrinogen dried on microtiter wells and converted with thrombin); assay: competition on fibrin-coated wells, competitor 125I-11 kDa (90 nM)
[18] = target: fibrin (fibrinogen dried on microtiter wells and converted with thrombin); assay: direct ELISA on fibrin-coated wells, reference intact fibronectin
fibrinogen-SEPHAROSE = assay: binding to a fibrinogen-SEPHAROSE column at 37° C. (material eluted with ethylene glycol)

Substance: recombinant ^4 F1.^5 F1 module pair of fibronectin (expressed in Saccharomyces cerevisiae) (peptide)
% inhibition of Fn binding at saturating concentration [1]: 70% | IC50 [1]: 750 nM | concentration at maximum inhibition [1]: 10 µM | maximal % inhibition of biotinylated Fn binding [2]: 67% | % blocking of fibronectin binding [3]: 36% | Ki [4]: 695 nM | % inhibition (so in the source) [5]: 30% | maximum % inhibition of Fn binding [6]: 67% | IC50 [7]: 700 nM

Substance: recombinant ^10 F1 module of fibronectin (peptide)
% inhibition of biotinylated Fn binding [7]: 10%

Substance: ^125 I-11 kDa fibrin-binding peptide
concentration at 50% saturation [12]: 90 nM | Kd [13]: 154 nM

Substance: 25.9 kDa N-terminal proteolytic fibrin-binding fragment of fibronectin (peptide)
fold higher concentration than intact Fn for 50% inhibition [14]: 7.5 fold | Ki [4]: 145 nM | maximal % inhibition of biotinylated Fn binding [15]: 75% | IC50 [7]: 150 nM

Further lines, results first:

concentration at 75% of the maximum binding [8]: 2.3 nM | concentration at saturation of binding [8]: 4.54 nM | IC50 [7]: 20 nM | concentration for complete inhibition [7]: 2.2 µM
Substance: human plasma fibronectin (intact)

% inhibition of Fn binding [9]: < 20%
Substance: recombinant ^7 F1 module of fibronectin (peptide)

% of bound protein released by warming to 22° C. [10]: 35% | % of bound protein that required 6M urea for elution [10]: 65%
Substance: ^35 S-methionine labeled recombinant ^10 F1-end (expressed in COS cells) (peptide)

concentration at saturation of binding [11]: 4.5 nM
Substance: biotinylated fibronectin

% of bound iodinated 11 kDa displaced [16]: 42% | IC50 [17]: 605 nM | concentration at maximum inhibition [17]: 4 µM | times more bound than intact fibronectin (mole-per-mole) [18]: 20 times | % of the applied material bound (fibrinogen-SEPHAROSE): 4 to 5%
Substance: 11 kDa C-terminal fibrin-binding fragment of fibronectin (peptide)
